The text below walks through data of US20150299296A1 (Chugai, published 2015).

Assay [1] has as its target T1, human FcγRIIb extracellular domain with C-terminal His tag (human, UniProt P31994 43-217).
T1 construct: extracellular domain; For crystals it was expressed with kifunensine and trimmed with Endo F1; also called FcgRIIb; FcγRIIb extracellular region
T1 sequence (looked up): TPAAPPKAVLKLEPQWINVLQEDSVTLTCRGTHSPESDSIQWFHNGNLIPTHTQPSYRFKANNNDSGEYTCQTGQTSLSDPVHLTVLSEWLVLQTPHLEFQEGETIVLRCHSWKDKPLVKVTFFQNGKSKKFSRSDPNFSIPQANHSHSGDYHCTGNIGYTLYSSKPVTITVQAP
Briefly: SPR (Biacore): amount of FcγRIIb bound per captured antibody, relative to the pre-altered antibody GpH7-B3/GpL16-k0 = 100 (Reference Examples 2, 3 and 6). Background: In SPR one partner is held on a chip, and binding of the other changes the refractive index at the surface.

For assay [2], the target named is T2, human FcγRIa extracellular domain with C-terminal His tag (human, UniProt P12314 16-292).
T2 construct: Whole entry named; also called FcgRIa; FcgIa
T2 sequence (P12314 16-292): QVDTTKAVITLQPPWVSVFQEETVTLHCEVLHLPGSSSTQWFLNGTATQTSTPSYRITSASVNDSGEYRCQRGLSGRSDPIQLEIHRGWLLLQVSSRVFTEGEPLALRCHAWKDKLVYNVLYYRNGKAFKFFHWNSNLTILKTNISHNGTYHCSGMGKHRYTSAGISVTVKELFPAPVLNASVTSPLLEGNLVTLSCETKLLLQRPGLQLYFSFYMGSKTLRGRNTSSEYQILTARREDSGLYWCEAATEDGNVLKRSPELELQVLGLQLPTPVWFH
Briefly: SPR (Biacore): antibody captured on the chip, FcγR as analyte; amount bound divided by amount of antibody captured, relative to the antibody without mutation in B3 = 100 (Reference Examples 2 and 3).

Assay [3] concerns the target T1, human FcγRIIb extracellular domain with …. Briefly: SPR (Biacore), KD by the method of Reference Example 2 (Example 9-3). The procedure: These variants were used for antibody expression and purification according to the method of Reference Example 1, and binding to each FcgR (FcgRIa. FcgRIIa type H, FcgRIIa type R, FcgRIIb, and FcgRIIIa type V) was assessed using the method of Reference Example 2.

Assay [4] has the same target. Put plainly: SPR KD ratio; reference is the same variant's KD for FcγRIIaR.
Assay [5] shares this target. Put plainly: SPR.
The target is the same in assay [6]. Put plainly: SPR KD ratio.
Assay [7] deals with T2, human FcγRIa extracellular domain with …. Briefly: SPR.

Numbering of substitutions follows the chain as printed. Names and notes keep the numbering of the source.

B1: G237W (antibody, human IgG1, kappa)
heavy chain: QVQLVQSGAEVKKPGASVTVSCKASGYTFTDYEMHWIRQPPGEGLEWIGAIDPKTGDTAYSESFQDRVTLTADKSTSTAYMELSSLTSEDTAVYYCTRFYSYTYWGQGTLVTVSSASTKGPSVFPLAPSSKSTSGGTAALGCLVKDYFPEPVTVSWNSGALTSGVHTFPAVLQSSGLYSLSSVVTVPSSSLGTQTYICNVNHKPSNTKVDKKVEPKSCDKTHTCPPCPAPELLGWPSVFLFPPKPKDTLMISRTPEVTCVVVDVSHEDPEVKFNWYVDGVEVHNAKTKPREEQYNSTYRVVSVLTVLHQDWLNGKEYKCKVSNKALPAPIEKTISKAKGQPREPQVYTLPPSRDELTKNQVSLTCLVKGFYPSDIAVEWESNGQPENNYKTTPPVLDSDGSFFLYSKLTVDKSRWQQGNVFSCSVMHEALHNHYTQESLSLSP
light chain: DIVMTQSPLSLPVTPGEPASISCQASESLVHSNRNTYLHWYLQKPGQSPQLLIYKVSNRFSGVPDRFSGSGSGTDFTLKISRVEAEDVGVYYCSQNTHVPPTFGQGTKVEIERTVAAPSVFIFPPSDEQLKSGTASVVCLLNNFYPREAKVQWKVDNALQSGNSQESVTEQDSKDSTYSLSSTLTLSKADYEKHKVYACEVTHQGLSSPVTKSFNRGEC
notes: also called GpH7-B3 with G237W / GpL16-k0 (no P238D)
Turning to B1, the binding result in assay [1] is listed as “binds”.

B2: mutation B (antibody, human IgG1, kappa)
heavy chain: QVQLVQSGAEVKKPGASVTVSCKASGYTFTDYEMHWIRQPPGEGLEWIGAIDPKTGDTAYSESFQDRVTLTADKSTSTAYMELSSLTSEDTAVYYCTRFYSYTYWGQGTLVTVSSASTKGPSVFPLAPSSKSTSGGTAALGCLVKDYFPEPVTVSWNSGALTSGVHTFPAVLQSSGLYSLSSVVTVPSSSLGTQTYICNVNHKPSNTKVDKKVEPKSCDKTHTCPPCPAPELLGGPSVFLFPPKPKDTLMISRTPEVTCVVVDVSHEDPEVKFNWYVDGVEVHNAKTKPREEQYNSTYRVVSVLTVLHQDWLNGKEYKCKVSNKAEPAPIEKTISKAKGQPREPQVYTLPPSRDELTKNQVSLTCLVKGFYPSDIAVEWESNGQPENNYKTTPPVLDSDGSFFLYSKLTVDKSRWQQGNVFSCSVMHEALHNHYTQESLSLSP
light chain: B1 light chain
notes: Legend: mutation B = Leu at 328 (EU numbering) substituted with Glu
With B2, the binding result in assay [2] is given as “binds”.

B3: G237A (antibody, human IgG1, kappa)
heavy chain: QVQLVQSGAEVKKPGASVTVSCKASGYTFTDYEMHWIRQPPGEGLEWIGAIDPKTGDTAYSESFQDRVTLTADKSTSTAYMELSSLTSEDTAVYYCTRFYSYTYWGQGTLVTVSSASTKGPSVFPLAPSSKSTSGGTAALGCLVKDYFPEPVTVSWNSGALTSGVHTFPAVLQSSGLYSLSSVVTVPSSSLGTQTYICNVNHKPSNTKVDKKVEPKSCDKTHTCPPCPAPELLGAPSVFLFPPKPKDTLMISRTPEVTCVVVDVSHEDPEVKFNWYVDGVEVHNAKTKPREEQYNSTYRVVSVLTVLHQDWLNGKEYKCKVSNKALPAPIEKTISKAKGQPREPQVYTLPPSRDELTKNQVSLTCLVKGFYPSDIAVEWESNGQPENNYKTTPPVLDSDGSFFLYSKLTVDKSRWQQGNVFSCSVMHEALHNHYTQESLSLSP
light chain: B1 light chain
notes: also called GpH7-B3 with G237A / GpL16-k0 (no P238D)
Regarding B3, in assay [1], the binding result was “binds”.

B4: L234W (antibody, human IgG1, kappa)
heavy chain: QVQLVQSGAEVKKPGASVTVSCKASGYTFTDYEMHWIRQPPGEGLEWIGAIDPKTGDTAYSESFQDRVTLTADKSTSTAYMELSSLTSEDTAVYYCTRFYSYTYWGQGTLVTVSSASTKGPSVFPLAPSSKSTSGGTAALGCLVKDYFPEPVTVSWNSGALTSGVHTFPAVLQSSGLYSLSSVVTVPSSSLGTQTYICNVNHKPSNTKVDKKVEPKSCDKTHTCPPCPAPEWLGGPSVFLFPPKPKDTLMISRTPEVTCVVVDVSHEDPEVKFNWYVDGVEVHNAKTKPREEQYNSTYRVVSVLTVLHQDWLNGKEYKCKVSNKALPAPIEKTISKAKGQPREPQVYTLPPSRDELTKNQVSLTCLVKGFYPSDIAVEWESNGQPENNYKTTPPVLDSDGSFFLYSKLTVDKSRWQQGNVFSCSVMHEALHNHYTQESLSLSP
light chain: B1 light chain
notes: also called GpH7-B3 with L234W / GpL16-k0 (no P238D)
On to B4, for which the binding result in assay [1] is “binds”.

B5: G237D (antibody, human IgG1, kappa)
heavy chain: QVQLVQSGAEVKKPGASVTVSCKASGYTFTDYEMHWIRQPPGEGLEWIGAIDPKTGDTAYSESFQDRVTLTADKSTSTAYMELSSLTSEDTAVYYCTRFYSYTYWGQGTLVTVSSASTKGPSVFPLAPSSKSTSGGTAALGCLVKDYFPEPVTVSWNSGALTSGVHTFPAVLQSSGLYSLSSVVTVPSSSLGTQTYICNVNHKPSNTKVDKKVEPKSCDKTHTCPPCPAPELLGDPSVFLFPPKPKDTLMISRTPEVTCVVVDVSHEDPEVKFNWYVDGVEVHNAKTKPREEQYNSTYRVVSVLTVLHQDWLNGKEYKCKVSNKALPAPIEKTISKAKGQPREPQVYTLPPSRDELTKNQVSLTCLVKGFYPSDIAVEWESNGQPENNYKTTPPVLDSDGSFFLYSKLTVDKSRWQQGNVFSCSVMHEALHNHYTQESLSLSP
light chain: B1 light chain
notes: also called GpH7-B3 with G237D / GpL16-k0 (no P238D)
B5: the binding result in assay [1] is reported as “binds”.

B6: G237Y (antibody, human IgG1, kappa)
heavy chain: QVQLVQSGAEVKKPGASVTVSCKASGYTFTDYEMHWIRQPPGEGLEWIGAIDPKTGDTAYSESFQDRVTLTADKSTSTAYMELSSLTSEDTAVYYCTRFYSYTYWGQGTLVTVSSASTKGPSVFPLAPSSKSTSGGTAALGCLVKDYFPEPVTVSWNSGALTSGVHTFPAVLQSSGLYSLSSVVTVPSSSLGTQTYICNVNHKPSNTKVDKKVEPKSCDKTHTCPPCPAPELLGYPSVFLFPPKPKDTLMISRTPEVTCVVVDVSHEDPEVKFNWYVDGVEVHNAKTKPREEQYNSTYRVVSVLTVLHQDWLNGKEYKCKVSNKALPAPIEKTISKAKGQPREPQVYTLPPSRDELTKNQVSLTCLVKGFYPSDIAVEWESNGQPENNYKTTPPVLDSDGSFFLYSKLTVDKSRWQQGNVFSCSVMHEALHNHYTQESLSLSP
light chain: B1 light chain
notes: also called GpH7-B3 with G237Y / GpL16-k0 (no P238D)
Regarding B6, the binding result in assay [1] was “binds”.

B7: G237F (antibody, human IgG1, kappa)
heavy chain: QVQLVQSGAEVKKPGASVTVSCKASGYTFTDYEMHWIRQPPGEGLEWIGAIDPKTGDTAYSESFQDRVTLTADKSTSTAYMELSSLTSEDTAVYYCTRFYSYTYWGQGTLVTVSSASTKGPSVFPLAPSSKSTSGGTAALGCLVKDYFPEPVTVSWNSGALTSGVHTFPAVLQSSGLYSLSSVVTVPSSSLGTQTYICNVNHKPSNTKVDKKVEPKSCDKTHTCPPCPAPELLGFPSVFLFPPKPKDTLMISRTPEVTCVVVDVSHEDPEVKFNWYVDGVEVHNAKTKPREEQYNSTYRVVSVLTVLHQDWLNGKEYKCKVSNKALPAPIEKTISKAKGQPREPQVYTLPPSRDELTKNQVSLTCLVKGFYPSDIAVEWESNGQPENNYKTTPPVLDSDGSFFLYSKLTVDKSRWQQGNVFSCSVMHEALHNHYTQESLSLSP
light chain: B1 light chain
notes: also called GpH7-B3 with G237F / GpL16-k0 (no P238D)
B7: in assay [1], the binding result is “binds”.

B8: L234Y (antibody, human IgG1, kappa)
heavy chain: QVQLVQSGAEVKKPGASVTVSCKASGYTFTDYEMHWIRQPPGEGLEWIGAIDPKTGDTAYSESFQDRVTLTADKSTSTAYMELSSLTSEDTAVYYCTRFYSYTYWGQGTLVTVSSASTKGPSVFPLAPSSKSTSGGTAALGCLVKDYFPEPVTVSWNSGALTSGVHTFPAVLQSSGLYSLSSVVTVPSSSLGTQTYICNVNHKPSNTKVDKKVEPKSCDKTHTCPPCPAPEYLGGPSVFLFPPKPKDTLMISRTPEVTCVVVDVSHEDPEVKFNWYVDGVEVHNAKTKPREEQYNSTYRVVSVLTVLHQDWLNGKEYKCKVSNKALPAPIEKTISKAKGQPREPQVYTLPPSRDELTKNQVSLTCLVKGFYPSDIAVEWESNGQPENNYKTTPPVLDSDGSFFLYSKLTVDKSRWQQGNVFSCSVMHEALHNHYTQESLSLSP
light chain: B1 light chain
notes: also called GpH7-B3 with L234Y / GpL16-k0 (no P238D)
Turning to B8, in assay [1], the binding result is “binds”.

B9: G237L (antibody, human IgG1, kappa)
heavy chain: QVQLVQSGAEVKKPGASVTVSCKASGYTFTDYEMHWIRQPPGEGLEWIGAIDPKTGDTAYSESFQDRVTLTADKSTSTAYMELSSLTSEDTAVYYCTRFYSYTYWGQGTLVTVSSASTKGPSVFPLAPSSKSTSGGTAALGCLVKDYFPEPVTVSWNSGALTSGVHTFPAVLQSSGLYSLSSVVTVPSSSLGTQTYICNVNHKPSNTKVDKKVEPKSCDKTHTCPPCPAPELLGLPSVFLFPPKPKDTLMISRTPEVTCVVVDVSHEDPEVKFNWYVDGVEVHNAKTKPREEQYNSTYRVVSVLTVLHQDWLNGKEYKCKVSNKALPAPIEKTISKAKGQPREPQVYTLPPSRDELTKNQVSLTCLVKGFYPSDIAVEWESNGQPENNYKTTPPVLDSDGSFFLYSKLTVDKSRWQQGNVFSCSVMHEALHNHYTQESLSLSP
light chain: B1 light chain
notes: also called GpH7-B3 with G237L / GpL16-k0 (no P238D)
As for B9, the binding result in assay [1] is given as “binds”.

B10: G237E (antibody, human IgG1, kappa)
heavy chain: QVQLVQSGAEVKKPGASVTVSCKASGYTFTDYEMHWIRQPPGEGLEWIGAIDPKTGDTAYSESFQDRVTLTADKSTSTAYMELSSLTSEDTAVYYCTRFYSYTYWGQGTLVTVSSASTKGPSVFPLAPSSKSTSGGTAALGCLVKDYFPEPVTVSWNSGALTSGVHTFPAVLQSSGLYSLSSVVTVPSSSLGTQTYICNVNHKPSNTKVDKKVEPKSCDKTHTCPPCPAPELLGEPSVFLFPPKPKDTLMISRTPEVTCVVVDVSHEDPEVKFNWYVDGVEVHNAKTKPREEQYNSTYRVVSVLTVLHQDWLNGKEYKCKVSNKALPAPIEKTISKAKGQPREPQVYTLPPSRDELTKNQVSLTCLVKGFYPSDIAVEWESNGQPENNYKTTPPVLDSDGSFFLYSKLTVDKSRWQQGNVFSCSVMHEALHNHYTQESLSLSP
light chain: B1 light chain
notes: also called GpH7-B3 with G237E / GpL16-k0 (no P238D)
In the case of B10, in assay [1], the binding result is “binds”.

B11: S239D (antibody, human IgG1, kappa)
heavy chain: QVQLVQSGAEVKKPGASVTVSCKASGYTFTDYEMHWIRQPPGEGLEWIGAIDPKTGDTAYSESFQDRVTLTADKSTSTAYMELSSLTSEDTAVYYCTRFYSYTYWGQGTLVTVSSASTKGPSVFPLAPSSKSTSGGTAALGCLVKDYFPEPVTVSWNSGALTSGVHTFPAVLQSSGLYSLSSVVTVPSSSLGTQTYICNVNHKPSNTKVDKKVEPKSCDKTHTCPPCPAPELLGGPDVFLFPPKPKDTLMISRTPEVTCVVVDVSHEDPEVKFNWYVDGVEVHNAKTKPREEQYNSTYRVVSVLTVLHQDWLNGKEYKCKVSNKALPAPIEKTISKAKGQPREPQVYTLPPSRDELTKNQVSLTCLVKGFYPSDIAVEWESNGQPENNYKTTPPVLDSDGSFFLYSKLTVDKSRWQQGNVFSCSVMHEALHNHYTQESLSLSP
light chain: B1 light chain
notes: also called GpH7-B3 with S239D / GpL16-k0 (no P238D)
With B11, in assay [1], the binding result was “binds”.

B12: G237M (antibody, human IgG1, kappa)
heavy chain: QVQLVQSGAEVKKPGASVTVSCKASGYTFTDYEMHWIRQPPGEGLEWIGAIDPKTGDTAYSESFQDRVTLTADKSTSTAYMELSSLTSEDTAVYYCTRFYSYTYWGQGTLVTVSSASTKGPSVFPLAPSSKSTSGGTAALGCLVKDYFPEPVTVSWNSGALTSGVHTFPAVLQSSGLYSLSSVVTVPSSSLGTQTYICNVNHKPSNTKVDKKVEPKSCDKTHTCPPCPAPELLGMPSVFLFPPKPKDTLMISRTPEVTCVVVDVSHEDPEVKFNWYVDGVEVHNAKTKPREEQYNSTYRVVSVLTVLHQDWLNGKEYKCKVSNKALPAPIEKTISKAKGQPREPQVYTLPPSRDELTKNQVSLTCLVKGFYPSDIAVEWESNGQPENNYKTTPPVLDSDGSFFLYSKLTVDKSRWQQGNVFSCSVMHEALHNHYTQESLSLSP
light chain: B1 light chain
notes: also called GpH7-B3 with G237M / GpL16-k0 (no P238D)
Turning to B12, the binding result in assay [1] is on record as “binds”.

B13: IL6R-BP264/IL6R-L (antibody, human IgG1, kappa)
heavy: QVQLQESGPGLVKPSETLSLTCAVSGHSISHDHAWSWVRQPPGEGLEWIGFISYSGITNYNPSLQGRVTISRDNSKNTLYLQMNSLRAEDTAVYYCARSLARTTAMDYWGEGTLVTVSSASTKGPSVFPLAPSSKSTSGGTAALGCLVKDYFPEPVTVSWNSGALTSGVHTFPAVLQSSGLYSLSSVVTVPSSSLGTQTYICNVNHKPSNTKVDKKVEPKSCDKTHTCPPCPAPDLLGDDSVFLFPPKPKDTLMISRTPEVTCVVVDVSEEDGEVKFNWYVDGVEVHNAKTKPREEQDNSTYRVVSVLTVLHQDWLNGKEYKCKVSNKALPRPIEKTISKAKGQPREPQVYTLPPSRDELTKNQVSLTCLVKGFYPSDIAVEWESNGQPENNYKTTPPVLDSDGSFFLYSKLTVDKSRWQQGNVFSCSVMHEALHNHYTQESLSLSP
light: not shown
Consider B13, for which the binding result in assay [3] is recorded as “binds”.

B14: IL6R-BP479/IL6R-L (antibody)
chain 1: B13 heavy with V266I, V268L, S269A, D298Y, R332A
chain 2: not shown
Consider B14, for which, in assay [4], the “KD (IIaR)/KD (IIb)” value was 16.1.

B15: IL6R-BP498/IL6R-L (antibody, human IgG1, kappa)
heavy: B13 heavy with V266I, S269A, D298Y, P398L
light: not shown
For B15, the binding result in assay [5] is “binds”.

B16: IL6R-BP495/IL6R-L (antibody, human IgG1, kappa)
heavy: B13 heavy with D235E, S269G
light: not shown
For the molecule B16, the “fold binding (IL6R-B3/IL6R-L = 1)” value in assay [6] was 321 times.

B17: IL6R-BP511/IL6R-L (antibody, human IgG1, kappa)
heavy: B13 heavy with D235E, V266I, S269A, E274P
light: not shown
On to B17, for which the binding result in assay [5] was “binds”.

B18: IL6R-BP568/IL6R-L (antibody)
heavy: B13 heavy with D239G, V266I, S269A, D298Y, R332A
light: not shown
With B18, in assay [6], the “fold binding against the native form” value was determined as 211 fold.

B19: IL6R-BP503/IL6R-L (antibody, human IgG1, kappa)
heavy: B13 heavy with V266I, S269A, A329G, P398M
light: not shown
Turning to B19, the binding result in assay [5] is recorded as “binds”.

B20: IL6R-BP510/IL6R-L (antibody, human IgG1, kappa)
heavy: B13 heavy with D235E, V266I, S269A, E274P, D298Y
light: not shown
notes: also called IL6R-BP510/L6R-L
With B20, the binding result in assay [5] is given as “binds”.

B21: IL6R-BP494/IL6R-L (antibody, human IgG1, kappa)
heavy: B13 heavy with D235E, S269A
light: not shown
For B21, the binding result in assay [5] is “binds”.

B22: IL6R-BP490/IL6R-L (antibody, human IgG1, kappa)
heavy: B13 heavy with D235E, V266I, S269A, D298Y
light: not shown
For B22, the binding result in assay [5] is given as “binds”.

B23: IL6R-BP489/IL6R-L (antibody, human IgG1, kappa)
heavy: B13 heavy with V266I, S269A, P398M
light: not shown
On to B23, for which, in assay [6], the “fold binding (IL6R-B3/IL6R-L = 1)” value was 3100 times.

B24: IL6R-BP492/IL6R-L (antibody, human IgG1, kappa)
heavy: B13 heavy with D235E, D239G, V266I, S269A, D298Y, R332A
light: not shown
For the molecule B24, in assay [6], the “fold binding against the native form” value is 131 fold.

B25: IL6R-BP436/IL6R-L (antibody, human IgG1, kappa)
heavy: B13 heavy with S269A, I334T
light: not shown
For the molecule B25, the binding result in assay [5] and in assay [7] was “binds” in each case.

B26: IL6R-BP493/IL6R-L (antibody, human IgG1, kappa)
heavy: B13 heavy with D235E, D239G, V266I, S269A, R332A
light: not shown
On to B26, for which the “fold binding against the native form” value in assay [6] amounted to 147 fold.

B27: IL6R-BP567/IL6R-L (antibody, human IgG1, kappa)
heavy: B13 heavy with D239G, V266I, S269A, R332A
light: not shown
For the molecule B27, the “KD (IIaR)/KD (IIb)” value in assay [4] was found to be 64.4. Further, the binding result in assay [7] is recorded as “binds”.

B28: IL6R-BP491/IL6R-L (antibody, human IgG1, kappa)
heavy: B13 heavy with D235E, V266I, S269A
light: not shown
On to B28, for which, in assay [5], the binding result is given as “binds”.

B29: IL6R-BP488/IL6R-L (antibody, human IgG1, kappa)
heavy: B13 heavy with V266I, S269A
light: not shown
Regarding B29, the binding result in assay [5] was “binds”.

B30: IL6R-BP499/IL6R-L (antibody, human IgG1, kappa)
heavy: B13 heavy with V266I, S269A, P398L
light: not shown
Turning to B30, in assay [5], the binding result is on record as “binds”.
